US20130230528A1 (Novartis, published 2013)
One block for each binder: values may come before it.

What was measured:
[1] = biological target: T1, human CD40 on the cell surface (normal B cells, B-CLL cells, EBV-transformed B cells, multiple myeloma cell … (human, UniProt P25942 20-277)); assay: cell-based or functional assay
[2] = biological target: T1, human CD40 on the cell surface (normal …); assay: cell-based or functional assay; remark: listed apart in the source
[3] = biological target: T2, human CD40, soluble / recombinant (ELISA and Biacore) (human, UniProt P25942 20-193); assay: Biacore (assay named in paragraph 181)
T2 construct: also called soluble CD40; recombinant CD40
T2 sequence (P25942 20-193): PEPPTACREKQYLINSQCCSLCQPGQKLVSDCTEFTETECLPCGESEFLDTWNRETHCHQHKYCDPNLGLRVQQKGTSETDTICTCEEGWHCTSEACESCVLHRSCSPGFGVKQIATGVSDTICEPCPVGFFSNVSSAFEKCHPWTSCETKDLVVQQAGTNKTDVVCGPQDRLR

[4] = biological target: T1, human CD40 on the cell surface (normal …); assay: cell-based or functional assay; remark: listed apart in the source

T1 sequence (P25942 20-277): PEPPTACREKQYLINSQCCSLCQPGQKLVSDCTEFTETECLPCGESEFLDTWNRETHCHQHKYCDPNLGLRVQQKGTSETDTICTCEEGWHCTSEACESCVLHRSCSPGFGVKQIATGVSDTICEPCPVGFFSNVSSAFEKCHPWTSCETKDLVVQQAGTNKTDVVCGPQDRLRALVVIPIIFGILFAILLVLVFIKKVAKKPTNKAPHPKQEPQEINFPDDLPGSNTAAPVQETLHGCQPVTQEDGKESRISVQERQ

MCP-1 secretion, normal B cells, Donor 1, fold induction over background [1]: 5.5 fold | MCP-1 secretion, normal B cells, Donor 3, fold induction over background [1]: 1.7 fold | MIP-1β secretion, normal B cells, Donor 1, fold induction over background [1]: 2.2 fold | MIP-1β secretion, normal B cells, Donor 2, fold induction over background [1]: 2.6 fold | MIP-1β secretion, normal B cells, Donor 3, fold induction over background [1]: 17.8 fold | hIL-6 secretion, normal B cells, Donor 1, fold induction over background [1]: 5.7 fold | hIL-6 secretion, normal B cells, Donor 2, fold induction over background [1]: 3.8 fold | hIL-6 secretion, normal B cells, Donor 3, fold induction over background [1]: 20.5 fold | hIL-8 secretion, normal B cells, Donor 1, fold induction over background [1]: 7.7 fold | hIL-8 secretion, normal B cells, Donor 2, fold induction over background [1]: 14.7 fold | hIL-8 secretion, normal B cells, Donor 3, fold induction over background [1]: 49.3 fold | hIL-10 secretion, normal B cells, Donor 1, fold induction over background [1]: 3.6 fold | hIL-10 secretion, normal B cells, Donor 3, fold induction over background [1]: 3.6 fold | hTNF-α secretion, normal B cells, Donor 1, fold induction over background [1]: 3.7 fold | hTNF-α secretion, normal B cells, Donor 2, fold induction over background [1]: 4.8 fold | hTNF-α secretion, normal B cells, Donor 3, fold induction over background [1]: 22.8 fold | MCP-1 secretion, CLL cells, CLL #1, fold induction over background [2]: 5.5 fold | hGM-CSF secretion, CLL cells, CLL #1, fold induction over background [2]: 7.6 fold | hIL-8 secretion, CLL cells, CLL #1, fold induction over background [2]: 4 fold | hIL-10 secretion, CLL cells, CLL #1, fold induction over background [2]: 9.2 fold | hTNF-α secretion, CLL cells, CLL #1, fold induction over background [2]: 3.3 fold
B1: CD40L on transfected, formaldehyde-fixed CHO cells (ligand)
chain: MIETYNQTSPRSAATGLPISMKIFMYLLTVFLITQMIGSALFAVYLHRRLDKIEDERNLHEDFVFMKTIQRCNTGERSLSLLNCEEIKSQFEGFVKDIMLNKEETKKENSFEMQKGDQNPQIAAHVISEASSKTTSVLQWAEKGYYTMSNNLVTLENGKQLTVKRQGLYYIYAQVTFCSNREASSQAPFIASLCLKSPGRFERILLRAANTHSSAKPCGQQSIHLGGVFELQPGASVFVNVTDPSQVSHGTGFTSFGLLKL

Kd [3]: 12 nM
B2: CHIR-5.9 fully human anti-CD40 monoclonal antibody (antibody, V domains shown)
VH: EVQLVQSGAEVKKPGESLKISCKGSGYSFTSYWIGWVRQMPGKGLEWMGIIYPGDSDTRYSPSFQGQVTISADKSISTAYLQWSSLKASDTAMYYCARGTAAGRDYYYYYGMDVWGQGTTVTVSS
VL: AIVMTQPPLSSPVTLGQPASISCRSSQSLVHSDGNTYLNWLQQRPGQPPRLLIYKFFRRLSGVPDRFSGSGAGTDFTLKISRVEAEDVGVYYCMQVTQFPHTFGQGTRLEIKR
notes: Human IgG1 kappa from XenoMouse hybridoma; also called mAb CHIR-5.9; 131.2F8.5.9

Kd [3]: 0.5 nM
B3: CHIR-12.12 fully human anti-CD40 monoclonal antibody (antibody, human IgG1, kappa, V domains shown)
VH: QVQLVESGGGVVQPGRSLRLSCAASGFTFSSYGMHWVRQAPGKGLEWVAVISYEESNRYHADSVKGRFTISRDNSKITLYLQMNSLRTEDTAVYYCARDGGIAAPGPDYWGQGTLVTVSS
VL: DIVMTQSPLSLTVTPGEPASISCRSSQSLLYSNGYNYLDWYLQKPGQSPQVLISLGSNRASGVPDRFSGSGSGTDFTLKISRVEAEDVGVYYCMQARQTPFTFGPGTKVDIRR
notes: Human IgG1 kappa from XenoMouse hybridoma; also called 153.8E2.D10.D6.12.12

cPARP flow cytometry, fold inhibition by rhsCD40L, CLL subject M1 [4]: 5.8 fold | cPARP flow cytometry, fold inhibition by rhsCD40L, CLL subject M2 [4]: 2.6 fold | cPARP flow cytometry, fold inhibition by rhsCD40L, CLL subject M3 [4]: 2.1 fold | cPARP flow cytometry, fold inhibition by rhsCD40L, CLL subject M4 [4]: 3.2 fold | cPARP flow cytometry, fold inhibition by rhsCD40L, CLL subject M5 [4]: 2.3 fold | cPARP flow cytometry, fold inhibition by rhsCD40L, CLL subject M6 [4]: 0.9 fold | cPARP flow cytometry, fold inhibition by rhsCD40L, CLL subject M7 [4]: 5.2 fold | cPARP flow cytometry, fold inhibition by rhsCD40L, Normal B [4]: 3 fold
B4: soluble recombinant human CD40L (Alexis Corporation) (ligand)
chain: GDQNPQIAAHVISEASSKTTSVLQWAEKGYYTMSNNLVTLENGKQLTVKRQGLYYIYAQVTFCSNREASSQAPFIASLCLKSPGRFERILLRAANTHSSAKPCGQQSIHLGGVFELQPGASVFVNVTDPSQVSHGTGFTSFGLLKL
CellTiter-Glo viability, fold induction by rhsCD40L, CLL subject M1 [4]: 3.1 fold | CellTiter-Glo viability, fold induction by rhsCD40L, CLL subject M2 [4]: 2.9 fold | CellTiter-Glo viability, fold induction by rhsCD40L, CLL subject M3 [4]: 1.9 fold | CellTiter-Glo viability, fold induction by rhsCD40L, CLL subject M4 [4]: 2.3 fold | CellTiter-Glo viability, fold induction by rhsCD40L, CLL subject M5 [4]: 3.5 fold | CellTiter-Glo viability, fold induction by rhsCD40L, CLL subject M6 [4]: 2.6 fold | CellTiter-Glo viability, fold induction by rhsCD40L, CLL subject M7 [4]: 3.8 fold | CellTiter-Glo viability, fold induction by rhsCD40L, Normal B [4]: 3 fold
